Assay results published in article PMC10902351.

What was measured:
[1] = target: Toxoplasma gondii actin (TgAct1), untagged (Toxoplasma gondii) (UniProt P53476)
[2] = target: Toxoplasma gondii actin (TgAct1), untagged (Toxoplasma gondii) (UniProt P53476); assay: epifluorescence microscopy of single filament growth (in vitro actin growth assay); actin growth assay with inclusion of 0.1 mM AMPPNP, compared to MgATP conditions

Toxoplasma gondii actin (TgAct1), untagged (from UniProt P53476 1-376) (natural protein)
phosphate (Pi) release after inducing polymerization of 12 µM TgAct1, MESG assay, 1-hour time course (phosphates per TgAct1 in 1 hour) [1]: 3 | fold change of the critical concentration with 0.1 mM AMPPNP against MgATP conditions [2]: 2 fold
